Laboratory results taken from patent publication US20200368364A1, “CYSTEINE PEPTIDE-ENABLED ANTIBODIES” (City of Hope, priority 2016, published 2020).

Tests used:
[1] = biological target: mutated I83 trastuzumab memAb (I83E); assay: SPR at 37° C., meditope over immobilised I83E trastuzumab memAb
HER2 on SKBR3 cells = HER2 on SKBR3 cells (UniProt P04626); assay: Flow cytometry on SKBR3 cells with 10 nM complex on ice and an AF488 secondary antibody. The other quadrants are printed as Q1 1.19, Q3 0 and Q4 0.18.
[2] = biological target: Her2 (antigen in the SPR of Example 1, FIG. 14) (UniProt P04626); assay: SPR
HER2-Fc (R&D Systems) = HER2-Fc (R&D Systems) (UniProt P04626); assay: SPR (Biacore T200), HER2-Fc amine-coupled to a CM5 chip, Fab flowed over; ± is the SD of three runs
[3] = biological target: original trastuzumab memAb (meditope-enabled trastuzumab, I83 in the light chain); assay: SPR at 37° C., meditope over immobilised original trastuzumab memAb

Substance	Kd [1]	Kd (HER2-Fc (R&D Systems))	koff (HER2-Fc (R&D Systems))	kon (HER2-Fc (R&D Systems))	other results
5-diphenylalanine meditope (FIG. 3) (peptide)	0.86 nM				
A175C meFab conjugated to the AlexaFluor647 thiopyridine-meditope					Q2 (share of events positive for both the AF647 meditope and the AF488 secondary antibody) (HER2 on SKBR3 cells): 98.6
Trastuzumab I83E, A175C Fab		0.296 nM	0.000378 s⁻¹	1.28e+06 M⁻¹ s⁻¹	

More lines, main results first:

Kd [1]	Kd (HER2-Fc (R&D Systems))	koff (HER2-Fc (R&D Systems))	kon (HER2-Fc (R&D Systems))	Substance	other results
	0.863 nM	0.000674 s⁻¹	1.04e+06 M⁻¹ s⁻¹	Trastuzumab I83E Fab (meditope-enabled trastuzumab V2 Fab)	Kd [2]: 0.055 nM; koff [2]: 0.00021 s⁻¹; kon [2]: 3.8e+06 M⁻¹ s⁻¹
38 nM				original meditope, Ac-…-Am (peptide)	Kd [3]: 1000 nM
